Target: HLA-A*02:01-restricted MART-1 epitope, A*02:0
Experiment: cell-based or functional assay

Substance: DMF4 (TCR)
- frequency of the TCR in post-real-selection (CD137-positive, sorted) against pre-selection polyclonal TCR-T cells, by NGS: 10 fold

— patent publication US20220389406A1
